From patent US20240101686A1
Read-outs that look alike come from different tables or passages of the source.

Tests used:
Conditions in all cases: remark: other sources report otherwise
[1] = target: human EGFR on cells (human), P00533
[2] = target: human EGFR on cells (human), P00533; remark: listed apart in the source
[3] = target: human EGFR on cells (human), P00533; remark: listed apart in the source
[4] = target: human EGFR endogenously expressed on A431 cells (human), P00533

Max MFI [1]: 143
Max MFI [2]: 88
Average fluorescence intensity [3]: 528
Max MFI [4]: 712
B1: 30D8-hIgG1 (antibody, V domains shown)
VH: EVQLVESGGGLVKPGGSLRLSCEASGFTFSDAWMSWVRQAPGKGLEWVGRIKSKTDGGTTDYVVPLNGRFIISRDDSRNTLYLQLNNLKTEDTAVYYCTTVPGSYGYWGQGTLVTVSS
VL: DIVMTQSPLSLPVTPGEPASISCRSSQSLLHNKRNNYLDWFLQKPGQSPQLLIYLASNRASGVPDRFSGGGSGTDFTLKISRVEAEDVGVYYCMQAQQTPITFGQGTRLEIK
